Biological target: T1, chemokine receptor CXCR4, expressed on transfected 293T cells (UniProt P61073 1-352, limits assumed)
T1 construct: whole, on cells; also called CXCR4 receptor
Assay: phage binding to transfected 293T cells; bound phage rescued and titrated
Experimental: Briefly, plasmid (10 μg) was mixed with 900 μl of serumfree DMEM and 50 μl of FuGene and incubated for 15 min at room temperature before adding the mixture to the cells. The cells were detached using EDTA after 48 hrs post transfection and washed with PBS containing 1% BSA. Phage (5×10⁹ pfu) were incubated with the transfected cells and bound phage were rescued and titrated. For competitive binding assay, the cognate peptide (150 μg/ml) or antibody (50 μg/ml) was added during incubating of the phage with cells. Targeted proapoptotic peptide treatment of tumor-bearing mice Prostate cancer model. Orthotopic xenografted prostate tumors were established by injecting 1×10⁶ PPC1 human prostate cancer cells into the mouse prostate. Fifteen days post inoculation, the mice were intravenously injected with D(KLAKLAK)₂-[…] (SEQ ID NO:41), an equimolar mixture of D(KLAKLAK)₂ (SEQ ID NO:19) and […] (SEQ ID NO:6), or PBS. Biweekly injections of 100 μg/dose/mouse were given for three weeks. Melanoma model. Nude BALB/c mice were subcutaneously injected with 1×10⁶ C8161 human melanoma cells. Treatment started when mean tumor volumes reached about 100 mm3. Mice with size-matched tumors were randomized into three groups. […] The mice were monitored for weight loss, and tumors were dissected and weighed at the termination of the experiment. […]

T1 sequence (P61073 whole entry): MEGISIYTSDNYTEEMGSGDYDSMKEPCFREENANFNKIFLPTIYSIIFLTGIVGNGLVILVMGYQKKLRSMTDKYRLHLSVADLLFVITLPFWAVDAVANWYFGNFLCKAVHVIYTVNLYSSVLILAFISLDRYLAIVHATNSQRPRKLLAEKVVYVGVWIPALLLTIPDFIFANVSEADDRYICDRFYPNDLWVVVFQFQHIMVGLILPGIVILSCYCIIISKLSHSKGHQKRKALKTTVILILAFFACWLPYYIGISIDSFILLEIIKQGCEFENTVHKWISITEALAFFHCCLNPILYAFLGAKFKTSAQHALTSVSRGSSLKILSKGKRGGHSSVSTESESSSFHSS

Does CGNKRTRGC [LyP-1 phage (T7 phage displaying the peptide CGNKRTRGC, SEQ ID NO:16)] bind?
Result: no binding (tested: 5x10^9 pfu phage)
